Consider 1 molecule from doi:10.1101/2024.05.23.595439.

The target in one series is T1, SSF (full-length) (Escherichia coli F plasmid, UniProt P18310 1-179).
T1 sequence: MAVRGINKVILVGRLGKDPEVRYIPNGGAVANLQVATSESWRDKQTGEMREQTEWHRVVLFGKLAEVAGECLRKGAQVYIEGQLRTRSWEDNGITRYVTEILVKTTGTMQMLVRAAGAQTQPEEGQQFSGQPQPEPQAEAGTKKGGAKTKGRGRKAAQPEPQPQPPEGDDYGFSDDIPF
The series is described as follows: MST.

For the next series, the target named is SSB (full-length) (Escherichia coli, UniProt P0AGE0 1-178). The series is described as follows: MST.
SSB (full-length), sequence (P0AGE0 whole entry): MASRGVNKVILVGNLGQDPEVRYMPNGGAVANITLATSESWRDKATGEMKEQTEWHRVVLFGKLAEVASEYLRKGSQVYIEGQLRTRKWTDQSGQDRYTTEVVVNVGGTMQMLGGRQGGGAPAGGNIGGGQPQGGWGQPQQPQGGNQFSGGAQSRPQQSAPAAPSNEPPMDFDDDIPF

B1: hairpin dsDNA (structured_DNA)
DNA: GGCAAATTACTCCTGTAATTTGCC
One may read the Kd as the constant that tells how readily two partners part at equilibrium. Low values mean higher affinity, high ones lower affinity. Consider B1, for which the Kd with SSF (full-length) amounted to 45.3 µM. Also, in the series with SSB (full-length), the binding result is “no binding”.
